{"source": "patent US20200408687", "about": "“Polarization-Based Fluorescent Nucleic Acid Detection” (The General Hospital Corporation, published 2020)", "binders": {"B1": {"name": "Escherichia detection key / Escherichia amplicon (mixed)", "DNA 1": "CAATGTACAGTATTGTGGAGGAAGGGAGTAAAGTTAAT", "DNA 2": "TGCGGGTAACGTCAATGAGCAAAGGTATTAACTTTACTCCCTTCCTCCA", "modifications": "amplicon strand dU in place of dT in dUTP assay"}}, "biological_target": "Taq DNA polymerase (UniProt P19821 P19821:1-832)", "sequence (P19821 whole entry, one chain of several)": "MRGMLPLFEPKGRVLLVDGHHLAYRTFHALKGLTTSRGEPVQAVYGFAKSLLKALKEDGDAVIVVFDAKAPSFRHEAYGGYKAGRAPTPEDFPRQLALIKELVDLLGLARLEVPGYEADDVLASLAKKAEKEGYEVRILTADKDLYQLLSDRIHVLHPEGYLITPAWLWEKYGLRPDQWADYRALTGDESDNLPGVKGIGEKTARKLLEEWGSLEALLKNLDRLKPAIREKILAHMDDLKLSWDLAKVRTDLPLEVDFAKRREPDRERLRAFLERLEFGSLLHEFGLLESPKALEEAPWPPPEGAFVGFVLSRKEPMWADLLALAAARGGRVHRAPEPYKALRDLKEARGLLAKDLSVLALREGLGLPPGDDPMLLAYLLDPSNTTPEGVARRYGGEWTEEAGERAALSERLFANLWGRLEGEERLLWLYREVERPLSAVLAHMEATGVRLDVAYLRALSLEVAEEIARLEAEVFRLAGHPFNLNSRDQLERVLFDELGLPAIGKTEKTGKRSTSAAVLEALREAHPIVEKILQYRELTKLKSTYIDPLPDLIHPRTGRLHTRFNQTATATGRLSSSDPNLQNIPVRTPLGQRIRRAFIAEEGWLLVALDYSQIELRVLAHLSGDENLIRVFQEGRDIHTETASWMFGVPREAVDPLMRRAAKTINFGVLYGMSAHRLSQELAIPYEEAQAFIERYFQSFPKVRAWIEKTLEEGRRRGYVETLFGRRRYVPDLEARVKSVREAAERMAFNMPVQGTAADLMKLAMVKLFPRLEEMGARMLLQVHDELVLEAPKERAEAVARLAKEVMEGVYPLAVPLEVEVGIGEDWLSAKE", "assay": "EMSA; band of key/amplicon hybrid shifted on adding Taq; 4 mM MgCl2, 20 mM Tris-HCl pH 8.3, 20 mM KCl, room temp; text does not name the individual keys run", "details": "tags: New England Biolabs (band shift); Maxima Hot Start Taq, Thermo Scientific, in PAD assay", "method": "Electrophoretic Band Shift Experiment Solution containing 100 or 200 nM detection key, PCR products and 12.5 U Taq DNA polymerase (New England Biolabs) in 20 mM Tris-HCl (pH 8.3), 20 mM KCl, 5 mM (NH4)2SO4, and 4 mM MgCl2 was incubated at room temperature for 20 min. The solution was mixed with 6× loading buffer and subjected to electrophoresis on a 20% polyacrylamide gel (Life technologies). The analysis was carried out in 1× TBE (100 mM Tris, 90 mM Borate, 1 mM EDTA) at 150 V for 160 min at 4° C. After GelRed (Biotium) staining, gels were scanned using a UV transilluminator. DNA polymerase was neither fluorescent nor stained by the dye.\nThe sequence homology among genus types was kept <50% to minimize non-specific binding. When tested, the HAI keys assumed high specificity. […] Electrophoretic band-shift analysis confirmed that the detection keys, in the presence of complementary target amplicon, bound to DNA polymerase and inhibited its catalytic activity (see FIG. 24). […] This confirmed the binding between detection keys and DNA polymerase."}
{"binder": "B1", "values": [{"measurement": "binding result", "result": "binds"}]}
